Measurements from publication PMC9482650, “Quantitative fragmentomics allow affinity mapping of interactomes” (Nature Communications, 2022).

T1: ARHGAP21, Q5T5U3
T1 sequence (Q5T5U3 45-169, limits assumed, looked up): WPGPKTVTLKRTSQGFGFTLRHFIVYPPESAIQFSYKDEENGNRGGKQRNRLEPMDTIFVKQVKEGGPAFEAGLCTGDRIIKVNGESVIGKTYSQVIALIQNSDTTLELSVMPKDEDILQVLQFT

T2: MPP2, Q14168
T2 sequence (Q14168 180-250, limits assumed, looked up): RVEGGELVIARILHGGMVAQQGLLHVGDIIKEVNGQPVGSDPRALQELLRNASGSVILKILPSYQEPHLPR

T3: HTRA3, P83110
T3 sequence (P83110 354-453, limits assumed, looked up): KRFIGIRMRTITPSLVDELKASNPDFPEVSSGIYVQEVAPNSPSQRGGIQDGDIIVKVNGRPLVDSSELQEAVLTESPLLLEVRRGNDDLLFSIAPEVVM

T4: GRIP1_5, Q9Y3R0
T4 sequence (Q9Y3R0 568-668, limits assumed, looked up): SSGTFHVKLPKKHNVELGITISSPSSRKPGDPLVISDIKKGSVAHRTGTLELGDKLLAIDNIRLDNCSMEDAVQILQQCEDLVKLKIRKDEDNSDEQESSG

T5: RADIL, Q96JH8
T5 sequence (Q96JH8 971-1071, limits assumed, looked up): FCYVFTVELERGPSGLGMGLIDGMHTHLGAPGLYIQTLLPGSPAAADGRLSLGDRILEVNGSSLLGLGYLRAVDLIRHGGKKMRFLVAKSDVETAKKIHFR

T6: DLG3_2, Q92796
T6 sequence (Q92796 221-321, limits assumed, looked up): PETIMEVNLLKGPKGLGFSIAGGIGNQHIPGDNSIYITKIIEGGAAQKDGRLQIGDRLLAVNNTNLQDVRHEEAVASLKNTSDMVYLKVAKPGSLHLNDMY

T7: TIAM2, Q8IVF5
T7 sequence (Q8IVF5 885-986, limits assumed, looked up): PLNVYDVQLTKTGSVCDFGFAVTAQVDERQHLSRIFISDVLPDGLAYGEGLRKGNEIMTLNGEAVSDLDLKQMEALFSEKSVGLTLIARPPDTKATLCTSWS

T8: NHERF3_1, Q5T2W1
T8 sequence (Q5T2W1 4-100, limits assumed, looked up): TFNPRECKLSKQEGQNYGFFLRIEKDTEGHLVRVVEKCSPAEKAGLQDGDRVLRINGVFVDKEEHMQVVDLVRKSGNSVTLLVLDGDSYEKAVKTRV

T9: LNX2_3, Q8N448
T9 sequence (Q8N448 463-564, limits assumed, looked up): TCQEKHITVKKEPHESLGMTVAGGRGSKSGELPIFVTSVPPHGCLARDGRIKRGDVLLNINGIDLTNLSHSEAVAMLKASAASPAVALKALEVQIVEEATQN

T10: LIN7B, Q9HAP6
T10 sequence (Q9HAP6 88-185, limits assumed, looked up): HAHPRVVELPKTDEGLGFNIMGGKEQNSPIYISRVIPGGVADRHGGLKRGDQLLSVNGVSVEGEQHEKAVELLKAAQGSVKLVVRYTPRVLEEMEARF

T11: LNX2_2, Q8N448
T11 sequence (Q8N448 334-432, limits assumed, looked up): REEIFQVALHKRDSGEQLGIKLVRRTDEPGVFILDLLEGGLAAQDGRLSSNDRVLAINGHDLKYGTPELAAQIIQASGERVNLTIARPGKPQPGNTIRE

T12: GRIP1_4, Q9Y3R0
T12 sequence (Q9Y3R0 467-571, limits assumed, looked up): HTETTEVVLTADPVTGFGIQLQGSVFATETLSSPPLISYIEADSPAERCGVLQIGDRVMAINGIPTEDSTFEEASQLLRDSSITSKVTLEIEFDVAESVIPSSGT

B1: CRB2, Q5IJ48 (peptide)
chain: LKVPPEERLI
B2: RAB9A, P51151 (peptide)
chain: RKPKPSSSCC
B3: SLC2A7, Q6PXP3 (peptide)
chain: TASPAKETSF
B4: FLVCR1, Q9Y5Y0 (peptide)
chain: MLSKQSESAI
B5: ABCC6, O95255 (peptide)
chain: YRLAQESGLV
B6: TMEM225B, P0DP42 (peptide)
chain: ETQVTAETVI

Legend:
Test in all cases: holdup assay
Design in all cases: key: below the threshold = too weak to quantify, mostly under pKd 3.1 to 4
Details in all cases: plain residues with an end cap or a label only (N-terminal biotin on a linker: ado-ado)
IL16_4, Q14005 = molecular target: IL16_4, Q14005
LAP2, Q96RT1 = molecular target: LAP2, Q96RT1
Inadl_2, Q8NI35 = molecular target: Inadl_2, Q8NI35
ARHGAP21, Q5T5U3 = molecular target: T1, ARHGAP21, Q5T5U3
DLG1_1, Q12959 = molecular target: DLG1_1, Q12959
MPP2, Q14168 = molecular target: T2, MPP2, Q14168
FRMPD4, Q14CM0 = molecular target: FRMPD4, Q14CM0
GRIP2_5, Q9C0E4 = molecular target: GRIP2_5, Q9C0E4
HTRA3, P83110 = molecular target: T3, HTRA3, P83110
GRIP1_5, Q9Y3R0 = molecular target: T4, GRIP1_5, Q9Y3R0
RADIL, Q96JH8 = molecular target: T5, RADIL, Q96JH8
NOS1, P29475 = molecular target: NOS1, P29475
DLG3_2, Q92796 = molecular target: T6, DLG3_2, Q92796
TIAM2, Q8IVF5 = molecular target: T7, TIAM2, Q8IVF5
PARD3_3, Q8TEW0 = molecular target: PARD3_3, Q8TEW0
MAST2, Q6P0Q8 = molecular target: MAST2, Q6P0Q8
TJP2_1, Q9UDY2 = molecular target: TJP2_1, Q9UDY2
NHERF3_1, Q5T2W1 = molecular target: T8, NHERF3_1, Q5T2W1
LNX2_3, Q8N448 = molecular target: T9, LNX2_3, Q8N448
IL16_3, Q14005 = molecular target: IL16_3, Q14005
SNX27, Q96L92 = molecular target: SNX27, Q96L92
MAGI2_2, Q86UL8 = molecular target: MAGI2_2, Q86UL8
LIN7B, Q9HAP6 = molecular target: T10, LIN7B, Q9HAP6
LNX2_2, Q8N448 = molecular target: T11, LNX2_2, Q8N448
GRIP1_4, Q9Y3R0 = molecular target: T12, GRIP1_4, Q9Y3R0

Chain of MAGI2_2, Q86UL8 (Q86UL8 410-522): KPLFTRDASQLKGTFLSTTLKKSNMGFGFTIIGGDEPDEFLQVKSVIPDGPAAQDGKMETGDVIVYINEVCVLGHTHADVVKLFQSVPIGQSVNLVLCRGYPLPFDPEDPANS
Chain of NOS1, P29475 (P29475 9-101): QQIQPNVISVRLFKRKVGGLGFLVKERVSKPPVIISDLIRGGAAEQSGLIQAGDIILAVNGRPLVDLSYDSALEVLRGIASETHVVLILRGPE
Chain of PARD3_3, Q8TEW0 (Q8TEW0 582-685): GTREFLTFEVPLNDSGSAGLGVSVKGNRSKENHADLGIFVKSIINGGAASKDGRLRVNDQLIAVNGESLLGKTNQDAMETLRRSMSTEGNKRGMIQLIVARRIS
Chain of IL16_3, Q14005 (Q14005 1107-1207): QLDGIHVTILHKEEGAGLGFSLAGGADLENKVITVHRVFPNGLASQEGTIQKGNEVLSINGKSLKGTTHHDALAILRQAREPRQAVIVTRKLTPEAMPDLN
Chain of LAP2, Q96RT1 (Q96RT1 other isoform, or with tags, fused parts or gaps): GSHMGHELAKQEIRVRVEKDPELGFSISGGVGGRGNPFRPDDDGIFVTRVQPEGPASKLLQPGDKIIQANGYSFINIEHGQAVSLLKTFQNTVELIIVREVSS
Chain of GRIP2_5, Q9C0E4 (Q9C0E4 544-642): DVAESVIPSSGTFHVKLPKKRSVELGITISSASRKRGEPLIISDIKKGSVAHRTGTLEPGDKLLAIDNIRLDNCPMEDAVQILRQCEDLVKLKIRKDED
Chain of TJP2_1, Q9UDY2 (Q9UDY2 24-128): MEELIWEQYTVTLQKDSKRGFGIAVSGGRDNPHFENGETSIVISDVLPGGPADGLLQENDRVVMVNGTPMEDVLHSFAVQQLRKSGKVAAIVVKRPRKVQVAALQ
Chain of IL16_4, Q14005 (Q14005 1229-1329): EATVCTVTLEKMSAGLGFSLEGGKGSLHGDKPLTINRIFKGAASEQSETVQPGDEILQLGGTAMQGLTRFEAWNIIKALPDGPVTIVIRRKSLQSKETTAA
Chain of FRMPD4, Q14CM0 (Q14CM0 67-160): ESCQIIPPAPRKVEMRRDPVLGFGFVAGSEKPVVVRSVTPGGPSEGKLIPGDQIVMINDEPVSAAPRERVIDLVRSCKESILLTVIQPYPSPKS
Chain of Inadl_2, Q8NI35 (Q8NI35 238-335): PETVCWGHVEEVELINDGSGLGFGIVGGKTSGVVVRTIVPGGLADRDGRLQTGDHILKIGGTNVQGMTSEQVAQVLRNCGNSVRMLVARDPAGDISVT
Chain of MAST2, Q6P0Q8 (Q6P0Q8 1099-1202): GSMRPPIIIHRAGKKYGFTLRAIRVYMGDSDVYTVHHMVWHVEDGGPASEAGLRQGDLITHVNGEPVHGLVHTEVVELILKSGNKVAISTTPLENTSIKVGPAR

| Binder | pKd (IL16_4, Q14005) | pKd (LAP2, Q96RT1) | pKd (Inadl_2, Q8NI35) | pKd (ARHGAP21, Q5T5U3) | pKd (DLG1_1, Q12959) | pKd (MPP2, Q14168) | pKd (FRMPD4, Q14CM0) | pKd (GRIP2_5, Q9C0E4) | pKd (HTRA3, P83110) | pKd (GRIP1_5, Q9Y3R0) | pKd (RADIL, Q96JH8) | pKd (NOS1, P29475) | pKd (DLG3_2, Q92796) | pKd (TIAM2, Q8IVF5) | pKd (PARD3_3, Q8TEW0) | pKd (MAST2, Q6P0Q8) | pKd (TJP2_1, Q9UDY2) | pKd (NHERF3_1, Q5T2W1) | pKd (LNX2_3, Q8N448) | pKd (IL16_3, Q14005) | other results |
| --- | --- | --- | --- | --- | --- | --- | --- | --- | --- | --- | --- | --- | --- | --- | --- | --- | --- | --- | --- | --- | --- |
| B1 | below the threshold | below the threshold | below the threshold | 3.89 | below the threshold | below the threshold | below the threshold | below the threshold | below the threshold | below the threshold | below the threshold | below the threshold | below the threshold | below the threshold | 3.85 | 4.3 | below the threshold | below the threshold | below the threshold | below the threshold | pKd (SNX27, Q96L92): below the threshold; pKd (MAGI2_2, Q86UL8): below the threshold; pKd (LIN7B, Q9HAP6): below the threshold; pKd (LNX2_2, Q8N448): 3.72; pKd (GRIP1_4, Q9Y3R0): below the threshold |
| B2 | below the threshold | below the threshold | below the threshold | below the threshold | below the threshold | below the threshold | below the threshold | below the threshold | 4.6 | below the threshold | below the threshold | below the threshold | 4.1 | 3.8 | below the threshold | 3.69 | below the threshold | 3.61 | below the threshold | below the threshold | pKd (SNX27, Q96L92): below the threshold; pKd (MAGI2_2, Q86UL8): below the threshold; pKd (LIN7B, Q9HAP6): 3.75; pKd (LNX2_2, Q8N448): below the threshold; pKd (GRIP1_4, Q9Y3R0): below the threshold |
| B3 | below the threshold | below the threshold | below the threshold | below the threshold | below the threshold | below the threshold | below the threshold | below the threshold | below the threshold | below the threshold | below the threshold | below the threshold | 4.25 | 3.63 | below the threshold | 5.21 | below the threshold | 4.95 | below the threshold | below the threshold | pKd (SNX27, Q96L92): 5.48; pKd (MAGI2_2, Q86UL8): below the threshold; pKd (LIN7B, Q9HAP6): 4.5; pKd (LNX2_2, Q8N448): below the threshold; pKd (GRIP1_4, Q9Y3R0): below the threshold |
| B4 | below the threshold | below the threshold | below the threshold | 4.1 | below the threshold | below the threshold | below the threshold | below the threshold | below the threshold | below the threshold | below the threshold | 3.79 | 3.68 | below the threshold | below the threshold | 4.58 | below the threshold | 3.81 | below the threshold | below the threshold | pKd (SNX27, Q96L92): 4.4; pKd (MAGI2_2, Q86UL8): 3.8; pKd (LIN7B, Q9HAP6): below the threshold; pKd (LNX2_2, Q8N448): below the threshold; pKd (GRIP1_4, Q9Y3R0): below the threshold |
| B5 | below the threshold | below the threshold | below the threshold | 4.1 | below the threshold | below the threshold | below the threshold | below the threshold | below the threshold | below the threshold | 4.22 | below the threshold | below the threshold | below the threshold | below the threshold | 4.1 | below the threshold | 3.76 | below the threshold | below the threshold | pKd (SNX27, Q96L92): below the threshold; pKd (MAGI2_2, Q86UL8): below the threshold; pKd (LIN7B, Q9HAP6): below the threshold; pKd (LNX2_2, Q8N448): below the threshold; pKd (GRIP1_4, Q9Y3R0): below the threshold |
| B6 | below the threshold | below the threshold | below the threshold | below the threshold | 3.91 | below the threshold | below the threshold | below the threshold | below the threshold | below the threshold | below the threshold | 3.53 | 4.43 | 3.79 | 4.35 | 5.12 | below the threshold | 4.68 | below the threshold | below the threshold | pKd (SNX27, Q96L92): 5.39; pKd (MAGI2_2, Q86UL8): below the threshold; pKd (LIN7B, Q9HAP6): below the threshold; pKd (LNX2_2, Q8N448): 4.46; pKd (GRIP1_4, Q9Y3R0): below the threshold |
